Test results published in publication doi:10.1101/2024.10.12.618001.

Test: SEC

## CD95L-IZ-His (His8-TEV-Cys-IZ-CD95L (137-281), secreted form)
  percent trimers in solution (Gaussian fit of the SEC curve): occurs in a trimeric state (i.e. 62%)
